Target: Fused MjGMPS (MjATPPase subunit fused to the C-terminus of MjGATase, no intervening linker) (Methanocaldococcus jannaschii)
Assay: SEC

Q: “Fused MjGMPS (MjATPPase subunit fused to the C-terminus of MjGATase, no intervening linker) (enzyme)” was tested. Which stoichiometry N did it give?
A: 2
